Laboratory results as given in US20250250335A1 (SHENGHE CHINA BIOPHARMACEUTICAL, published 2025).
Read-outs that look alike come from different tables or passages of the source. Values belong to the binder of their own block, whether it stands above or below them.

Columns and labels:
[1] = target: T1, CEACAM6 on the surface of the tumor cells (HPAFII cells) (UniProt P40199 35-320); test: flow cytometry on HPAFII cells (Mean-FITC); the cells carry CEACAM5 and CEACAM6, signal not divided between the two
T1 construct: whole, on cells
T1 sequence (looked up): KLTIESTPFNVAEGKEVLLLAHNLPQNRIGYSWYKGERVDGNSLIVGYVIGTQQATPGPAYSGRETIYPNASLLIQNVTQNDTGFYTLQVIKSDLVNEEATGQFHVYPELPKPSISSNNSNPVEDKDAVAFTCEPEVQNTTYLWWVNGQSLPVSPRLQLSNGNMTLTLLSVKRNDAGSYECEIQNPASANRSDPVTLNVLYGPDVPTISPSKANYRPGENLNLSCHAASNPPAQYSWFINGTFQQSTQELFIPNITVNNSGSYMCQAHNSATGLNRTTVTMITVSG
Procedure: (§1) The antibody to be tested was taken as the initial concentration of 200 nM and diluted 5-fold with 6 gradients. The HPAFII cells (From USTC […] FOR ADVANCED STUDIES) in the incubator were taken out, and the cell suspension was transferred to a 15 mL centrifuge tube, centrifuged, and counted by resuspension in PBS. A blank control group (Blank), a negative control group (NC), an experimental group, a positive control group and the irrelevant antibody group were kept. […] The cell suspension was spread in a 96-well plate according to about 3×10⁵ cells/well. Centrifugation (1000 rpm, 5 min) was performed, followed by washing with PBS, re-centrifugation, and repeated twice to remove media residues. The supernatant was discarded, 100 μL of primary antibody solution and irrelevant antibody solution were added to the experimental group and irrelevant antibody group, respectively, and the cells were resuspended and incubated at room temperature for 1 h. The blank group, and the negative control group were incubated with an equal amount of PBS.
(§2) After 1 h, PBS was added to wash twice. After the supernatant was discarded, 100 μL of fluorescent secondary antibody dilution (Mouse-derived secondary antibody from Abcam ab6785) was added to each sample group, except for the blank group which was added with 100 μL of PBS. After incubation at room temperature and protected from light for 0.5 h, centrifugation was performed and PBS added to wash the samples twice. After the supernatant was discarded, 120 μL of PBS was added to resuspend and sequentially flow cytometry was performed to detect the mean fluorescence intensity. The concentration of the antibody was logarithmically taken as the horizontal coordinate, and the Sigmoidaldose-response (VariableSlope) method (GraphPadPrism Software, GraphPadSoftware, San Diego, California) was chosen to perform a nonlinear regression to obtain the binding activity curves of the antibody on HPAFII cells.

[2] = target: T2, human CEACAM5-his (ACRO CE5-H5226) (human, UniProt P06731 35-685); test: ELISA on coated human CEACAM5, OD450
T2 construct: Bought protein; not shown: His tag
T2 sequence (looked up): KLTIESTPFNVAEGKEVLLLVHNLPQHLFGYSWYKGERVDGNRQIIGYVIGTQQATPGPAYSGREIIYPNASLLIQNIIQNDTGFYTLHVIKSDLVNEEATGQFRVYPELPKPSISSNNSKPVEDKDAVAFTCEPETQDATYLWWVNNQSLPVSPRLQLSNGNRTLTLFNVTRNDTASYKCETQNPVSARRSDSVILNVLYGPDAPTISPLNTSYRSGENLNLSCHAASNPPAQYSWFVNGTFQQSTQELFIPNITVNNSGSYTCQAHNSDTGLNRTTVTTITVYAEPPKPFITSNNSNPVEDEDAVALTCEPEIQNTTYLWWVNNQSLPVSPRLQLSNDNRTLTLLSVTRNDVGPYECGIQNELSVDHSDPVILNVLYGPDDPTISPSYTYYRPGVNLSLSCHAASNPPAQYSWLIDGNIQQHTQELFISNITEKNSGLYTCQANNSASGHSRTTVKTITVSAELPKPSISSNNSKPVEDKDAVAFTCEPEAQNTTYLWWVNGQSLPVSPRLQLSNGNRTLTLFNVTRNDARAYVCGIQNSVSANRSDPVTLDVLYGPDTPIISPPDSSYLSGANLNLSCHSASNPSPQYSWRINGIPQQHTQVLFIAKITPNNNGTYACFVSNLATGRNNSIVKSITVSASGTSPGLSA
Procedure: (§3) The binding activity of the antibodies to human CEACAM5, human CEACAM6, and human CEACAM6 (AB) proteins was detected by ELISA. The plate coated with proteins was incubated at 4° C. overnight, and the 96-well ELISA plate blocked with 2% PBS-BSA was added with the antibody to be detected and incubated at 37° C. for 1 h. After washing 3 times with PBS containing 0.05% Tween, the absorbance value of each well was read at wavelength 450 nm with the gradient-diluted mouse-derived candidate antibody as the primary antibody and anti-mouse-IgG-FC-HRP as the secondary antibody, and the absorbance value of each well was read at wavelength 450 nm after the TMB color development.

mouse CEACAM5 = target: T3, mouse CEACAM5 (mouse, UniProt Q3UKK2 35-947, limits assumed); test: ELISA on coated protein, OD450
T3 sequence (looked up): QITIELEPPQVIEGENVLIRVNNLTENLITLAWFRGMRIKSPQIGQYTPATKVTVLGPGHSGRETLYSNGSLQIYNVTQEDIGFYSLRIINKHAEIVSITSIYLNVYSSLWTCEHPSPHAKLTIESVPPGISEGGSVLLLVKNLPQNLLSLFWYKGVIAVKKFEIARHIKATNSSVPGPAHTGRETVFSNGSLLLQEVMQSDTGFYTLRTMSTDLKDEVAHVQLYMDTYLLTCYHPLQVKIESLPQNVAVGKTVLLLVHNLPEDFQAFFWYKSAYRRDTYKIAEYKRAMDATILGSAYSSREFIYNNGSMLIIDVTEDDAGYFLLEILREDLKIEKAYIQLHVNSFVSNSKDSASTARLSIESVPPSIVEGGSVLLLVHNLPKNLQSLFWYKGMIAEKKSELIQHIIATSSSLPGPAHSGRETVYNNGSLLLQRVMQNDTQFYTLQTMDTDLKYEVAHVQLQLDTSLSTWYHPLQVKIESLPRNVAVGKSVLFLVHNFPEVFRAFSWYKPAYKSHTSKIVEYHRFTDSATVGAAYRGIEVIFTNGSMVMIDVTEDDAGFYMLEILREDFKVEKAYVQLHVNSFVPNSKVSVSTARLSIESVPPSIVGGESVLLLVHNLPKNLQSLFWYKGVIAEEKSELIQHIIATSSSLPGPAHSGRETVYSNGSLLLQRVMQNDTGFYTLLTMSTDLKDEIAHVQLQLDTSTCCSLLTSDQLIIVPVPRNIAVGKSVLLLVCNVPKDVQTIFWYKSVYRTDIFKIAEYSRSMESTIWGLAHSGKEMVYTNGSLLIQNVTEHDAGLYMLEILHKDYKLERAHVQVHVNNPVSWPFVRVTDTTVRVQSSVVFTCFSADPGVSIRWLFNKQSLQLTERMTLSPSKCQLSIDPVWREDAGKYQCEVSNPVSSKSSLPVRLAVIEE
How it was run: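 Plates coated overnight at 4 °C with mouse CEACAM5 protein, blocked with 2% BSA in PBS, then incubated with test antibody 1 h at 37 °C. Binding detected with HRP-conjugated goat anti-mouse IgG-Fc and TMB, absorbance read at 450 nm.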

[3] = target: T4, human CEACAM6-his (ACRO CE6-H5223) (human, UniProt P40199 35-320); test: ELISA on coated human CEACAM6, OD450
T4 construct: Bought protein; not shown: His tag
T4 sequence (looked up): T1 sequence (looked up)
Procedure: as §3

[4] = target: T2, human CEACAM5-his (ACRO CE5-H5226); test: ELISA on coated human CEACAM5, OD450; remark: listed apart in the source
How it was run: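 Plates coated overnight at 4 °C with antigen and blocked with 2% BSA in PBS received gradient-diluted mouse candidate antibodies for 1 h at 37 °C. Binding was detected with anti-mouse IgG Fc-HRP and TMB, read as OD450.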

[5] = target: T5, CEACAM5 on the surface of the tumor cells (HPAFII cells) (UniProt P06731 35-685); test: flow cytometry on HPAFII cells (Mean-FITC); the cells carry CEACAM5 and CEACAM6, signal not divided between the two
T5 construct: whole, on cells
T5 sequence (looked up): T2 sequence (looked up)
Procedure: as §1, §2

[6] = target: T2, human CEACAM5-his (ACRO CE5-H5226); test: SPR (Biacore), antibody captured on CM5 chip, antigen as analyte, 1:1 model
Procedure: The CM5 sensor chip was activated at a flow rate of 10 μL/min for 420 seconds. The channel was then injected with 30 μg/mL of anti-rat Fc IgG in 10 mM NaAc (pH 4.5) at a flow rate of 10 μL/min. The chip was inactivated with 1 M ethanolamine-hydrochloric acid (GE) for 420 seconds at a flow rate of 10 μL/min.
Candidate antibodies in running buffer 1×HBS-EP+ (10 mM HEPES, 150 mM NaCl, 3 mM EDTA, 0.05% Tween 20, pH 7.4) were captured onto Fc2 with anti-rat Fc IgG at a flow rate of 10 μL/min. The 10 nM human CEACAM5-his protein or CEACAM-6-his or CEACAM6 (AB)-his protein and running buffer were sequentially injected into Fc1-Fc2 at a flow rate of […], bound for 180 seconds, and then dissociated for 3600 seconds. 10 mM glycine (pH 1.5) was injected as regeneration buffer after each dissociation.
Result plots for the reference channel Fc1 and the buffer channel were subtracted from the test result plots. The experimental data fit the 1:1 binding model. The molecular weight of 110 KDa was used to calculate the molar concentration of CEACAM5 protein, 55 KDa for human CEACAM6-his, and 55 KDa for human CEACAM6 (AB)-his.

[7] = target: T5, CEACAM5 on the surface of the tumor …; test: flow cytometry on HPAFII cells (Mean-FITC); the cells carry CEACAM5 and CEACAM6, signal not divided between the two; remark: listed apart in the source
Procedure: as §1
After 1 h, PBS was added to wash twice. […] After the supernatant was discarded, 120 μL of PBS was added to resuspend and sequentially flow cytometry was performed to detect the mean fluorescence intensity. […]

[8] = target: T5, CEACAM5 on the surface of the tumor …; test: as above; remark: listed apart in the source
Procedure: as §1, §2

[9] = target: T5, CEACAM5 on the surface of the tumor …; test: as above; remark: listed apart in the source
Procedure: as §1, §2

binding result [1]: binds
EC50 (read off the curve) [2]: ~0.04 µg/mL
OD (mouse CEACAM5): 0.16 OD
binding result [3]: binds
B1: Antibody 1 (antibody, V domains shown)
VH: QVQLKQSGAELVRPGASVKLSCKTSGYIFTSYWIHWVKQRSGQGLEWIARIYPGTGSTYYNEKFKGKATLTADKSSSTAYMQLSSLKSEDSAVYFCARSGFPLTTVPLDYWGQGTTLTVSS
VL: DVQITQSPSYLAASPGETITINCRASKSISKYLAWYQEKPGKTNKLLIYSGSTLQSGIPSRFSGSGSGTDFTLTISSLEPEDFAMYYCQQHNEYPFTFGSGTKLEIK
notes: Mouse-derived hybridoma antibody; also called mouse-derived antibody 1

binding result [4]: binds
binding result [3]: binds
B2: Antibody 14 (antibody, V domains shown)
VH: EVQLVETGGGLVQPKGSLKLSCAASGFSFNTNAMNWVRQAPGKGLEWVARIRSKSNNYATYYADSVKDRFTISRDDSQSMLYLQMNNLKTEDTAMYYCVSFLSLMDYWGQGTSVTVSS
VL: QIVLTQSPAIMSASPGEKVTMTCSASSSISYMHWYQQKPGTSPKRWIYDTSKLASGVPARFSGSGSGTSYSLTISSMEAEDAATYYCHQRSSYPWTFGGGTKLEIK
notes: Mouse-derived hybridoma antibody; also called mouse-derived antibody 14

EC50 (read off the curve) [4]: ~0.004 µg/mL
EC50 (read off the curve) [5]: ~3 nM
EC50 (read off the curve) [2]: ~0.004 µg/mL
Kd [6]: 5.05 nM
EC50 (read off the curve) [7]: ~0.6 µg/mL
EC50 (read off the curve) [8]: ~3 nM
EC50 (read off the curve) [9]: ~2 nM
B3: NEO-201 antibody (msIgG2a subtype) (antibody, V domains shown)
VH: QVQLVQSGAEVKKPGASVKVSCKASGYTFTDYAMHWVRQAPGQRLEWMGLISTYSGDTKYNQNFQGRVTMTVDKSASTAYMELSSLRSEDTAVYYCARGDYSGSRYWFAYWGQGTLVTVSS
VL: DIQMTQSPSSLSASVGDRVTITCQASENIYGALNWYQRKPGKSPKLLIYGASNLATGMPSRFSGSGSGTDYTFTISSLQPEDIATYYCQQVLSSPYTFGGGTKLEIKR
